Assay results taken from patent US20070098681A1 (published 2007).

Assays:
DcR1 receptor-IgG = target: T1, DcR1 receptor-IgG (UniProt O14798 26-236, limits assumed); assay: AlphaQuest displacement of biotinylated Apo2L/TRAIL from receptor-IgG; ratio to Flag-Apo2L.WT
T1 construct: Receptor-IgG protein captured on Protein A acceptor beads; construct not described; not shown: IgG portion, not described
T1 sequence (looked up): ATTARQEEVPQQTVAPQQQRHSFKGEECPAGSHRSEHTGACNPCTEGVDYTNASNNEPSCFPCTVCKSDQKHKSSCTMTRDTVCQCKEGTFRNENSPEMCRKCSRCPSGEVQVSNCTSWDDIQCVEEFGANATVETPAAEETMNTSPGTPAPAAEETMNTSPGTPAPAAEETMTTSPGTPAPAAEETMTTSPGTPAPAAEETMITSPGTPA
Excerpt: (§1) This assay produces a signal when a “donor” and “acceptor” bead are brought in close proximity facilitating singlet oxygen-mediated, fluorescence resonance energy transfer. […] The acceptor bead is coated with Staphylococcal Protein A and is used to capture the receptor-IgG protein.

DcR2-IgG = target: T2, DcR2-IgG (UniProt Q9UBN6 56-211, limits assumed); assay: as above
T2 construct: not shown: IgG portion, not described
T2 sequence (looked up): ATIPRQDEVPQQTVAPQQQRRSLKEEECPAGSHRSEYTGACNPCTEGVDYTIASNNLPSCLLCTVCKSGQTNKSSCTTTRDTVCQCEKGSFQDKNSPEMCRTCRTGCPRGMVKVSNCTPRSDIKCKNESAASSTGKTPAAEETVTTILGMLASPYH
Excerpt: as §1

DR4-IgG [1] = target: T3, DR4-IgG (human); assay: as above
T3 construct: Mature DR4 ECD (amino acids 1-218); Made in human 293 cells; also called DR4 receptor immunoadhesin
Excerpt: as §1

DR5-IgG [2] = target: DR5-IgG (human); assay: BIAcore SPR; KD relative to Flag.Apo2L.WT
DR4-IgG [3] = target: T3, DR4-IgG; assay: BIAcore SPR; KD relative to Flag.Apo2L.WT
DR5-IgG [4] = target: DR5-IgG (human); assay: BIAcore SPR, receptor-IgG immobilised; ratio to wild-type Apo2L/TRAIL(114-281)
Procedure: (§2) Briefly, dissociation constants (Kd) for binding of Apo-2L variants (see Tables II and III) to immobilized receptor immunoadhesins were determined from surface plasmon resonance (SPR) measurements on a Pharmacia BIAcore 3000. DR5-IgG (also referred to as Apo-2-IgG) and DcR2-IgG receptor immunoadhesins were prepared as described in WO98/51793 published November 19, 1998 and WO99/10484 published Mar. 9, 1999, respectively. DR4-IgG was prepared as follows. A mature DR4 ECD sequence (amino acids 1-218; Pan et al., supra) was cloned into a pCMV-1 Flag vector (Kodak) downstream of the Flag signal sequence and fused to the CH1, hinge and Fc region of human immunoglobulin G₁ heavy chain as described previously [Aruffo et al., Cell, 61:1303-1313 (1990)]. The immunoadhesin was expressed by transient transfection into human 293 cells and purified from the cell supernatants by protein A affinity chromatography, as described by Ashkenazi et al., Proc. Natl. Acad. Sci., 88:10535-10539 (1991)]. The receptor immunoadhesin proteins were coupled to the sensor chip surface at a level of 300-500 resonance units using amine coupling chemistry (Pharmacia Biosensor). Sensorgrams were recorded for Apo-2L binding at concentrations ranging from 15.6 nM to 500 nM in 2-fold increments. The kinetics constants were determined by non-linear regression analysis and used to calculate the binding constants.

DR4-IgG [5] = target: T3, DR4-IgG; assay: as above
Procedure: as §2

DR5-IgG [6] = target: T4, DR5-IgG (human); assay: as above
T4 construct: also called Apo-2-IgG
Procedure: as §2

DR5-IgG [7] = target: DR5-IgG (human); assay: AlphaQuest displacement of biotinylated Apo2L/TRAIL from receptor-IgG; ratio to Flag-Apo2L.WT
Excerpt: as §1

DR5-IgG [8] = target: T4, DR5-IgG; assay: BIAcore SPR, receptor-IgG immobilised
Procedure: as §2
(§3) These variants were expressed and purified, the purified proteins were assayed for receptor-binding by BIAcore® and bioactivity on SK-MES lung carcinoma cells, as previously described (see, e.g. Hymowitz et al. (2000) Biochemistry 39, 633-640).

DR4-IgG [9] = target: T3, DR4-IgG; assay: BIAcore SPR, receptor-IgG immobilised
Procedure: as §2, §3

DR5-IgG [10] = target: DR5-IgG (human); assay: BIAcore SPR, receptor-IgG immobilised
Procedure: as §2, §3

DR5-IgG [11] = target: T4, DR5-IgG; assay: AlphaQuest displacement of biotinylated Apo2L/TRAIL from receptor-IgG; ratio to Flag-Apo2L.WT
Excerpt: as §1

DR5-IgG [12] = target: T4, DR5-IgG; assay: BIAcore SPR; KD relative to Flag.Apo2L.WT

B1: Flag-Apo2L.DR4-8 (ligand)
chain: VRERGPQRVAAHITGTRGRSNTLSSPNSKNEKALGRKINSWESSRSGHSFLSNLHLRNGELVIHEKGFYYIYSQTAFRFSEEIKEVTRNDKQMVQYIYKWTDYPDPILLMKSARNSCWSKDAEYGLYSIYQGGIFELKENDRIFVSVTNEHLIDMDHEASFFGAFLVG
- IC50 ratio (mutant/wt) (DcR1 receptor-IgG): 5.5 ratio (mutant/wt)
- IC50 ratio (mutant/wt) (DcR2-IgG): 15 ratio (mutant/wt)
- IC50 ratio (mutant/wt) (DR4-IgG [1]): 1 ratio (mutant/wt)
- KD ratio (mut/wt) (DR5-IgG [2]): 1100 ratio (mut/wt)
- KD ratio (mut/wt) (DR4-IgG [3]): 0.2 ratio (mut/wt)

B2: Apo2L/TRAIL(114-281) mutant DR5-11 (ligand)
chain: VRERGPQRVAAHITGTRGRSNTLSSPNSKNEKALGRKINSWESSRSGHSFLSNLHLRNGELVIHEKGFYYIYSQTAFRFKEEIKENTKNDKQMVQYIYKYTSYPDPILLMKSARNSCWSKDAEYGLYSIYQGGIFELKENDRIFVSVTNEGLVDMSHEASFFGAFLVG
- KD ratio (mutant/wt) (DR5-IgG [4]): 2.2 ratio (mutant/wt)
- KD ratio (mutant/wt) (DR4-IgG [5]): 5 ratio (mutant/wt)

B3: Apo2L/TRAIL(114-281) mutant DR5-4 (ligand)
chain: VRERGPQRVAAHITGTRGRSNTLSSPNSKNEKALGRKINSWESSRSGHSFLSNLHLRNGELVIHEKGFYYIYSQTAFRFREEIKENTKNDKQMVQYIYKYTSYPDPILLMKSARNSCWSKDAEYGLYSIYQGGIFELKENDRIFVSVTNEQLLDMNHEASFFGAFLVG
- KD ratio (mutant/wt) (DR5-IgG [4]): 1.3 ratio (mutant/wt)
- KD ratio (mutant/wt) (DR4-IgG [5]): 3.1 ratio (mutant/wt)

B4: Apo2L/TRAIL(114-281) mutant DR5-23 (ligand)
chain: VRERGPQRVAAHITGTRGRSNTLSSPNSKNEKALGRKINSWESSRSGHSFLSNLHLRNGELVIHEKGFYYIYSQTAFKFREEIKENTKNDKQMVQYIYKYTSYPDPILLMKSARNSCWSKDAEYGLYSIYQGGIFELKENDRIFVSVTNESLLDMEHEASFFGAFLVG
notes: Untagged, from pAPOK5.0, purified from E. coli
- KD ratio (mutant/wt) (DR5-IgG [6]): 2.4 ratio (mutant/wt)
- KD ratio (mutant/wt) (DR4-IgG [5]): 105 ratio (mutant/wt)

B5: Flag-Apo2L.DR5-2 (ligand)
chain: VRERGPQRVAAHITGTRGRSNTLSSPNSKNEKALGRKINSWESSRSGHSFLSNLHLRNGELVIHEKGFYYIYSQTAFKFKEEIKENTKNDKQMVQYIYKYTSYPDPILLMKSARNSCWSKDAEYGLYSIYQGGIFELKENDRIFVSVTNEHLIDMDHEASFFGAFLVG
- IC50 ratio (mutant/wt) (DR5-IgG [7]): 2.8 ratio (mutant/wt)
- IC50 ratio (mutant/wt) (DcR2-IgG): 5 ratio (mutant/wt)
- KD ratio (mut/wt) (DR5-IgG [2]): 1.9 ratio (mut/wt)
- KD ratio (mut/wt) (DR4-IgG [3]): 11 ratio (mut/wt)

B6: Apo2L/TRAIL(114-281) mutant DR5-5 (ligand)
chain: VRERGPQRVAAHITGTRGRSNTLSSPNSKNEKALGRKINSWESSRSGHSFLSNLHLRNGELVIHEKGFYYIYSQTSFRFTEEIKENTKNDKQMVQYIYKYTSYPDPILLMKSARNSCWSKDAEYGLYSIYQGGIFELKENDRIFVSVTNEGLLDMNHEASFFGAFLVG
- KD ratio (mutant/wt) (DR5-IgG [4]): 2.5 ratio (mutant/wt)
- KD ratio (mutant/wt) (DR4-IgG [5]): 12.4 ratio (mutant/wt)

B7: Flag-Apo2L.DR4-9 (ligand)
chain: VRERGPQRVAAHITGTRGRSNTLSSPNSKNEKALGRKINSWESSRSGHSFLSNLHLRNGELVIHEKGFYYIYSQTAFRFSEEIKERTRNDKQMVQYIYKWTDYPDPILLMKSARNSCWSKDAEYGLYSIYQGGIFELKENDRIFVSVTNEHLIDMDHEASFFGAFLVG
- IC50 ratio (mutant/wt) (DcR1 receptor-IgG): 4 ratio (mutant/wt)
- IC50 ratio (mutant/wt) (DcR2-IgG): 18 ratio (mutant/wt)
- IC50 ratio (mutant/wt) (DR4-IgG [1]): 1.1 ratio (mutant/wt)
- KD ratio (mut/wt) (DR5-IgG [2]): 1200 ratio (mut/wt)
- KD ratio (mut/wt) (DR4-IgG [3]): 4.3 ratio (mut/wt)

B8: Flag-Apo2L.DR5-1 (ligand)
chain: VRERGPQRVAAHITGTRGRSNTLSSPNSKNEKALGRKINSWESSRSGHSFLSNLHLRNGELVIHEKGFYYIYSQTAFKFKEEIKENTKNDKQMVQYIYKYTSYPDPILLMKSARNSCWSKDAEYGLYSIYQGGIFELKENDRIFVSVTNEALIDMDHEASFFGAFLVG
- IC50 ratio (mutant/wt) (DR5-IgG [7]): 2.4 ratio (mutant/wt)
- IC50 ratio (mutant/wt) (DcR2-IgG): 32 ratio (mutant/wt)
- KD ratio (mut/wt) (DR5-IgG [2]): 2.2 ratio (mut/wt)
- KD ratio (mut/wt) (DR4-IgG [3]): 11 ratio (mut/wt)

B9: Flag-Apo2L.DR5-21 (ligand)
chain: VRERGPQRVAAHITGTRGRSNTLSSPNSKNEKALGRKINSWESSRSGHSFLSNLHLRNGELVIHEKGFYYIYSQTAFKFKEEIKENTKNDKQMVQYIYKYTSYPDPILLMKSARNSCWSKDAEYGLYSIYQGGIFELKENDRIFVSVTNEDLLNMEHEASFFGAFLVG
- IC50 ratio (mutant/wt) (DcR2-IgG): 9.4 ratio (mutant/wt)

B10: Apo2L.DR5-8 (ligand)
chain: VRERGPQRVAAHITGTRGRSNTLSSPNSKNEKALGRKINSWESSRSGHSFLSNLHLRNGELVIHEKGFYYIYSQTQFKFREEIKENTKNDKQMVQYIYKYTSYPDPILLMKSARNSCWSKDAEYGLYSIYQGGIFELKENDRIFVSVTNERLLQMDHEASFFGAFLVG
notes: also called Apo2L/TRAIL.DR5-8
- DR5-binding (ratio relative to wild-type Apo2L) (DR5-IgG [8]): 0.6 ratio relative to wild-type Apo2L
- DR4-binding (ratio relative to wild-type Apo2L) (DR4-IgG [9]): > 25 ratio relative to wild-type Apo2L

B11: Apo2L.DR5-8C (ligand)
chain: VRERGPQRVAAHITGTRGRSNTLSSPNSKNEKALGRKINSWESSRSGHSFLSNLHLRNGELVIHEKGFYYIYSQTQFKFREEIKENTKNDKQMVQYIYKYTSYPDPILLMKSARNSCWSKDAEYGLYSIYQGGIFELKENDRIFVSVTNEHLLDMDHEASFFGAFLVG
- DR5-binding (ratio relative to wild-type Apo2L) (DR5-IgG [10]): 0.6 ratio relative to wild-type Apo2L
- DR4-binding (ratio relative to wild-type Apo2L) (DR4-IgG [9]): 5.5 ratio relative to wild-type Apo2L

B12: Flag-Apo2L.DR5-8 (ligand, not shown: small tags and cut ends)
chain: VRERGPQRVAAHITGTRGRSNTLSSPNSKNEKALGRKINSWESSRSGHSFLSNLHLRNGELVIHEKGFYYIYSQTQFKFREEIKENTKNDKQMVQYIYKYTSYPDPILLMKSARNSCWSKDAEYGLYSIYQGGIFELKENDRIFVSVTNERLLQMDHEASFFGAFLVG
modifications: N-terminal Flag epitope tag (pFLAG-MAC) is not written because its letters are not given
- IC50 ratio (mutant/wt) (DR5-IgG [11]): 0.7 ratio (mutant/wt)
- KD ratio (mut/wt) (DR5-IgG [12]): 0.8 ratio (mut/wt)

B13: Apo2L.DR5-8B (ligand)
chain: VRERGPQRVAAHITGTRGRSNTLSSPNSKNEKALGRKINSWESSRSGHSFLSNLHLRNGELVIHEKGFYYIYSQTQFKFREEIKENTKNDKQMVQYIYKYTSYPDPILLMKSARNSCWSKDAEYGLYSIYQGGIFELKENDRIFVSVTNEHLIDMDHEASFFGAFLVG
- DR5-binding (ratio relative to wild-type Apo2L) (DR5-IgG [10]): 0.6 ratio relative to wild-type Apo2L
- DR4-binding (ratio relative to wild-type Apo2L) (DR4-IgG [9]): 2.5 ratio relative to wild-type Apo2L
